B1: Mothers against decapentaplegic homolog 4 (Homo sapiens), Q13485 (parent)
chain: MDNMSITNTPTSNDACLSIVHSLMCHRQGGESETFAKRAIESLVKKLKEKKDELDSLITAITTNGAHPSKCVTIQRTLDGRLQVAGRKGFPHVIYARLWRWPDLHKNELKHVKYCQYAFDLKCDSVCVNPYHYERVVSPGIDLSGLTLQSNAPSSMMVKDEYVHDFEGQPSLSTEGHSIQTIQHPPSNRASTETYSTPALLAPSESNATSTANFPNIPVASTSQPASILGGSHSEGLLQIASGPQPGQQQNGFTGQPATYHHNSTTTWTGSRTAPYTPNLPHHQNGHLQHHPPMPPHPGHYWPVHNELAFQPPISNHPAPEYWCSIAYFEMDVQVGETFKVPSSCPIVTVDGYVDPSGGDRFCLGQLSNVHRTEAIERARLHIGKGVQLECKGEGDVWVRCLSDHAVFVQSYYLDREAGRAPGDAVHKIYPSAYIKVFDLRQCHRQMQQQAATAQAAAAAQAAAVAGNIPGPGSVGGIAPAISLSAAAGIGVDDLRRLCILRMSFVKGWGPDYPRQSIKETPCWIEIHLHRALQLLDEVLHTMPIADPQPLD
B2: Mothers against decapentaplegic homolog 2 (Homo sapiens), Q15796 (parent)
chain: MSSILPFTPPVVKRLLGWKKSAGGSGGAGGGEQNGQEEKWCEKAVKSLVKKLKKTGRLDELEKAITTQNCNTKCVTIPSTCSEIWGLSTPNTIDQWDTTGLYSFSEQTRSLDGRLQVSHRKGLPHVIYCRLWRWPDLHSHHELKAIENCEYAFNLKKDEVCVNPYHYQRVETPVLPPVLVPRHTEILTELPPLDDYTHSIPENTNFPAGIEPQSNYIPETPPPGYISEDGETSDQQLNQSMDTGSPAELSPTTLSPVNHSLDLQPVTYSEPAFWCSIAYYELNQRVGETFHASQPSLTVDGFTDPSNSERFCLGLLSNVNRNATVEMTRRHIGRGVRLYYIGGEVFAECLSDSAIFVQSPNCNQRYGWHPATVCKIPPGCNLKIFNNQEFAALLAQSVNQGFEAVYQLTRMCTIRMSFVKGWGAEYRRQTVTSTPCWIELHLNGPLQWLDKVLTQMGSPSVRCSSMS

Variants of: B1
Conditions: with smad2_human SMAD2, Q15796

Variant | effect of a mutation on the interaction
R420H | with no effect
D537H | with no effect
R515A | decreasing interaction strength
D351H | disrupting interaction strength
R361H | disrupting interaction strength
K507A | decreasing interaction strength
D493H | with no effect
K428A | decreasing interaction strength
Y513A | with no effect
V370D | with no effect
R441P | with no effect

Variants of: B2
Conditions: with smad4_human SMAD4, Q13485

Variant | effect of a mutation on the interaction
K375A | with no effect
D300H;K375A | with no effect
R310H | decreasing interaction strength
R310H;K375A | with no effect
W368H | with no effect
K420A | with no effect
N387P | with no effect
D450H | disrupting interaction strength
D300H | decreasing interaction strength
D300H;R310H | with no effect
V319D | with no effect
R310H;K420A | with no effect
R428A | with no effect
Y406H | with no effect
Y426A | with no effect
K375H;K420A | with no effect
D300H;K420A | with no effect

From IntAct's records for PubMed 11779503
